Laboratory results taken from the Human Domainome abundance scans (Beltran et al. 2025).
± gives the uncertainty stated by the source.

B1: Advillin, residues 785 to 819; numbered along this chain, O75366 (parent)
chain: LSEQDFVSVFGITRGQFAALPGWKQLQMKKEKGLF

Variants of: B1
Experiment: abundance fitness (aPCA) (normalised: wild type 0, dead -1); higher = more abundant; growth selection in yeast, the domain comes from the species named
Conditions: Homo sapiens

| Variant | abundance fitness |
| --- | --- |
| LSEQDFVSVFGITRGQFAALPGWKQHQMKKEKGLF | -0.132 ± 0.14 |
| LSEQDFVSVFGITRGQFAALPGWKQMQMKKEKGLF | -0.114 ± 0.063 |
| LSEQDFVSVFGITRGQFAALPGWKQDQMKKEKGLF | -0.01 ± 0.083 |
| LSEQDFVSVFGITRGQFAALPGWKQYQMKKEKGLF | -0.174 ± 0.15 |
| LSEQDFVSVFGITRGQKAALPGWKQLQMKKEKGLF | -0.479 ± 0.078 |
| LSEQDFVSVFGITRGQCAALPGWKQLQMKKEKGLF | -0.435 ± 0.14 |
| LSEQDFVSVFGITRGQIAALPGWKQLQMKKEKGLF | -0.538 ± 0.12 |
| LSEQDFVSVFGITRGQSAALPGWKQLQMKKEKGLF | -0.454 ± 0.058 |
| LSEQDFVSVFGITRGQPAALPGWKQLQMKKEKGLF | -0.631 ± 0.11 |
| LSEQDFVSVFGITRGQFAAIPGWKQLQMKKEKGLF | -0.902 ± 0.31 |
| LSEQDFVSVFGITRGQFAAVPGWKQLQMKKEKGLF | -0.753 ± 0.11 |
| LSEQDFVSVFGITRGQFAAMPGWKQLQMKKEKGLF | -0.211 ± 0.056 |
| LSEQDFVSVFGITRGQFAAYPGWKQLQMKKEKGLF | -0.106 ± 0.19 |
| LSEQDFVSVFGITRGQFAAGPGWKQLQMKKEKGLF | -0.408 ± 0.076 |
| LSEQDFVSVFGITMGQFAALPGWKQLQMKKEKGLF | -0.024 ± 0.078 |
| LSEQDFVSVFGITTGQFAALPGWKQLQMKKEKGLF | -0.205 ± 0.061 |
| LSEQDFVSVFGITLGQFAALPGWKQLQMKKEKGLF | -0.322 ± 0.079 |
| LSEQDFVSVFGITVGQFAALPGWKQLQMKKEKGLF | -0.264 ± 0.079 |
| LSEQDFVSVFGITRDQFAALPGWKQLQMKKEKGLF | 0.009 ± 0.093 |
| LSEQDFVSVFGITRCQFAALPGWKQLQMKKEKGLF | -0.152 ± 0.1 |
| LSEQDFVSVFGITRPQFAALPGWKQLQMKKEKGLF | -0.413 ± 0.1 |
| LSEQDFVSVFGITRFQFAALPGWKQLQMKKEKGLF | -0.193 ± 0.083 |
| LSEQDFVSVWGITRGQFAALPGWKQLQMKKEKGLF | -0.274 ± 0.066 |
| LSEQDFVSVDGITRGQFAALPGWKQLQMKKEKGLF | -0.316 ± 0.12 |

| Variant | abundance fitness |
| --- | --- |
| LSEQDFVSVTGITRGQFAALPGWKQLQMKKEKGLF | -0.367 ± 0.07 |
| LSEQDFVSVLGITRGQFAALPGWKQLQMKKEKGLF | -0.392 ± 0.059 |
| LSEQDFVSVQGITRGQFAALPGWKQLQMKKEKGLF | -0.59 ± 0.087 |
| LSEQDFVSVHGITRGQFAALPGWKQLQMKKEKGLF | -0.932 ± 0.18 |
| LSEQDFVSVFGITRGQFAALPGWKQLQVKKEKGLF | -1.03 ± 0.18 |
| LSEQDFVSVFGITRGQFAALPGWKQLQTKKEKGLF | -1.03 ± 0.15 |
| LSEQDFVSVFGITRGQFAALPGWKQLQLKKEKGLF | -0.47 ± 0.11 |
| LSEQDFVSVFGITRGQFAALPPWKQLQMKKEKGLF | 0.067 ± 0.065 |
| LSEQDFVSVFGITRGQFAALPIWKQLQMKKEKGLF | -0.162 ± 0.1 |
| LSEQDFVSVFGITRGQFAALPGWFQLQMKKEKGLF | -0.403 ± 0.16 |
| LSEQDFVSVFGITRGQFAALPGWNQLQMKKEKGLF | -0.433 ± 0.23 |
| LSEQDFVSVFGITRGQFAALPGWEQLQMKKEKGLF | -0.142 ± 0.097 |
| LSEQDFVSVFGITRGMFAALPGWKQLQMKKEKGLF | -0.279 ± 0.12 |
| LSEQDFVSVFGITRGPFAALPGWKQLQMKKEKGLF | -0.355 ± 0.29 |
| LSEQDFVSVFGITRGLFAALPGWKQLQMKKEKGLF | -0.382 ± 0.073 |
| LSEQDFVSVFGITRGGFAALPGWKQLQMKKEKGLF | -0.378 ± 0.069 |
| LSEQDFVSVFDITRGQFAALPGWKQLQMKKEKGLF | -0.647 ± 0.27 |
| LSEQDFVSVFRITRGQFAALPGWKQLQMKKEKGLF | -0.513 ± 0.059 |
| LSEQDFVSVFGTTRGQFAALPGWKQLQMKKEKGLF | -0.531 ± 0.084 |
| LSEQDFVSVFGNTRGQFAALPGWKQLQMKKEKGLF | -0.471 ± 0.1 |
| LSEQDFVSVFGYTRGQFAALPGWKQLQMKKEKGLF | -0.306 ± 0.14 |
| LEEQDFVSVFGITRGQFAALPGWKQLQMKKEKGLF | -0.085 ± 0.067 |
| LSEQDFVSVFGITRGQFAALPGWKQLQMKFEKGLF | -0.345 ± 0.12 |
| LSEQDFVSVFGITRGQFAALPGFKQLQMKKEKGLF | -0.22 ± 0.19 |

| Variant | abundance fitness |
| --- | --- |
| LSEQDFVSVFGITRGQFAALPGVKQLQMKKEKGLF | -0.11 ± 0.078 |
| LSEQDFVSVFGITRGQFAALPGIKQLQMKKEKGLF | -0.284 ± 0.1 |
| LSEQDFVSVFGITRGQFAALPGYKQLQMKKEKGLF | -0.211 ± 0.14 |
| LSEQDFVSVFGITRGQFAALPGAKQLQMKKEKGLF | -0.134 ± 0.062 |
| LSEQDFVSVFGITRGQFAALPGRKQLQMKKEKGLF | -0.202 ± 0.058 |
| LSEQDFVSVFGITRGQFAALPGDKQLQMKKEKGLF | 0.005 ± 0.098 |
| LSEQDFVSVFGITRGQFAALPGWKGLQMKKEKGLF | -0.568 ± 0.073 |
| LSEQDFVSVFGITRGQFAALPGWKWLQMKKEKGLF | -1.4 ± 0.15 |
| LSEQDFVSVFGITRGQFAALPGWKNLQMKKEKGLF | -0.407 ± 0.12 |
| LSEQDFVSSFGITRGQFAALPGWKQLQMKKEKGLF | -0.456 ± 0.096 |
| LSEQDFVSRFGITRGQFAALPGWKQLQMKKEKGLF | -0.162 ± 0.056 |
| LSEQDFVSLFGITRGQFAALPGWKQLQMKKEKGLF | -0.131 ± 0.063 |
| LSEQDFVSEFGITRGQFAALPGWKQLQMKKEKGLF | -0.149 ± 0.07 |
| LSEQDFVSDFGITRGQFAALPGWKQLQMKKEKGLF | -0.443 ± 0.17 |
| LSEQDFVSVFGITRGQFAALPGWKQLQMKKEPGLF | -0.132 ± 0.14 |
| LSEQDFVSVFGITRGQFAALPGWKQLQMKKEFGLF | -0.48 ± 0.47 |
| LSEQDFVSVFGITRGQFAALPGWKQLQMKKEVGLF | -0.103 ± 0.073 |
| LSEQDFVSVFGITRGQFAALPGWKQLQMKKELGLF | -0.047 ± 0.087 |
| LSEQDFVSVFGITRGQFAALPGWKQLQMKKEIGLF | -0.536 ± 0.32 |
| LSEQDFVEVFGITRGQFAALPGWKQLQMKKEKGLF | 0.119 ± 0.063 |
| LSEQDFVWVFGITRGQFAALPGWKQLQMKKEKGLF | -0.439 ± 0.11 |
| LSEQDFVKVFGITRGQFAALPGWKQLQMKKEKGLF | 0.156 ± 0.066 |
